Paper PMC10068764

Target: CA tri-hexamer_(center) (HIV-1)
Assay: ITC

NUP153^1411–1475/1425–1464△ peptide (25 aa) (from UniProt P49790 1411-1475)
Kd: 870 nM
